Reference: paper PMC5834346 (Familial cancer, 2018)
Positions count from the first letter of the chain named. In names and notes the source's numbering stands.

T1: RAD54L WT (human, UniProt Q92698 1-747)
T1 sequence (looked up): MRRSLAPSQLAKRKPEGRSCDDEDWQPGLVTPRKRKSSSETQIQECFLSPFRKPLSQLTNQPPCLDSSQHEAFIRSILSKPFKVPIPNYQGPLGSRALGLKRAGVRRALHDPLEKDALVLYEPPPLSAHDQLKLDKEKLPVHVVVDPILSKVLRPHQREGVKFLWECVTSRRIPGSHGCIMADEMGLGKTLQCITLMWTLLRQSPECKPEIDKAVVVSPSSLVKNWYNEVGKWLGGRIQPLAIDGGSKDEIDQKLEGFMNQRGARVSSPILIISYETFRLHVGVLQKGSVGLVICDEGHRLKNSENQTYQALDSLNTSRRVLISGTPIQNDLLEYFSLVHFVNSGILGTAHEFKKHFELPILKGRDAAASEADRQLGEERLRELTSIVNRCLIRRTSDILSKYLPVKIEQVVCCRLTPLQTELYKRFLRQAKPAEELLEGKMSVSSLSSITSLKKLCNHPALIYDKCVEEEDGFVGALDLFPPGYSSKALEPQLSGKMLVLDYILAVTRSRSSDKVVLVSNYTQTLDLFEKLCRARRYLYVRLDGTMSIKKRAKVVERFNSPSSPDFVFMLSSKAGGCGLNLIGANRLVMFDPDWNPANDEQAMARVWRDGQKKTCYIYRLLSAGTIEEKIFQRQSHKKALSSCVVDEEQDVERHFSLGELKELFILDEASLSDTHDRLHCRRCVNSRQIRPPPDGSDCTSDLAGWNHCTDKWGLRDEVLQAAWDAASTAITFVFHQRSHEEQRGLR

T2: XRCC3 WT (human, UniProt O43542 1-346)
T2 sequence (looked up): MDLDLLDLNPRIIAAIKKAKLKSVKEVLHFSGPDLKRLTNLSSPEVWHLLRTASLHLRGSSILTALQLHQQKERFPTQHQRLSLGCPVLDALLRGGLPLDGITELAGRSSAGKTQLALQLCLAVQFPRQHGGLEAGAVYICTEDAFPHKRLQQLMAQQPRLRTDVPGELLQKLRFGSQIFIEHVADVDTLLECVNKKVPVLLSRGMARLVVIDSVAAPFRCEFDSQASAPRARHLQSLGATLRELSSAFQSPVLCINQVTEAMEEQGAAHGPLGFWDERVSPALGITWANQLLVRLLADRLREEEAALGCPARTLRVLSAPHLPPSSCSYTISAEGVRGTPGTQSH

B1: RAD51 WT (natural protein, human, UniProt Q06609 1-339, looked up)
chain: MAMQMQLEANADTSVEEESFGPQPISRLEQCGINANDVKKLEEAGFHTVEAVAYAPKKELINIKGISEAKADKILAEAAKLVPMGFTTATEFHQRRSEIIQITTGSKELDKLLQGGIETGSITEMFGEFRTGKTQICHTLAVTCQLPIDRGGGEGKAMYIDTEGTFRPERLLAVAERYGLSGSDVLDNVAYARAFNTDHQTQLLYQASAMMVESRYALLIVDSATALYRTDYSGRGELSARQMHLARFLRMLLRLADEFGVAVVITNQVVAQVDGAAMFAADPKKPIGGNIIAHASTTRLYLRKGRGETRICKIYDSPCLPEAEAMFAINADGVGDAKD
B2: RAD51 A79D (natural protein, human, UniProt Q06609 1-339, looked up)
chain: B1 chain with A79D
B3: RAD51 A55V (natural protein, human, UniProt Q06609 1-339, looked up)
chain: B1 chain with A55V

What was measured:
Assay in all cases: two-hybrid
RAD51 A55V = target: B3
RAD51 A79D = target: B2
RAD54L WT = target: T1, RAD54L WT
XRCC3 WT = target: T2, XRCC3 WT
RAD51 WT = target: B1

Y2H % of WT (RAD51 A55V)	Y2H % of WT (RAD51 A79D)	Y2H % of WT (RAD54L WT)	Y2H % of WT (XRCC3 WT)	Y2H % of WT (RAD51 WT)	Binder
90.8 % of WT	109 % of WT				B1
		90.6 % of WT	21.5 % of WT	95.1 % of WT	B2
		112 % of WT	97.8 % of WT	135 % of WT	B3
